In a protein production outcome set (Wang et al. 2014) one finds protein production data, which are given here for six sequences.

The nature of the series: label from the status in PepcDB records.
Turning to “MSFDPIYFLTPIIVMVFSFGMVYKLVKSIKVLMFSALAYFIAIVLKVLVQFFTLGYLASINSLAVLGLYYGLQTSIFEVGLAYVFALLGKLKNGWGYGVSLAMWENGVLISIPTLFIYIAYYFFPLILSTPSQLEYPITQALPLIGLSILERVSSLLIHSSWGYLSVLSVITGRKRLILVAFPMGFVDFLVPFEKYLGILTFEFIFFCIGLICLVMAWSLGKYYRSTSSKDT”, the protein production result was “failed”.

Regarding “MSFDRNLCKVLVADDSRLVTSSVTAILRQLDLSDIYYAYKPFEVINLCKQMHFDLVICDYNFQTQLNGFQLLEELKHAQILPAHTTFVFLTGENDHKIVRSIVDCDPDDYLLKPFNHTFFRNRLLSAMKRRSVLLPIYEKLREMDFEGVIEATDTLLPFHPEYSKLIRRYRAHAMVQNKQFSSARSEYEKLLKEDNFDWIKTALANTLIETDNLEKAQEVLESLSSKKENPYYHDEMSNMAVLSEDIPKAIKHLKQSTMLLDAGSERELVITNLSLASESYDDAVTYIKRYYEKNENTFRGGIFTKLNFVRCHLYRSLNAPSNQCFENLLFGLNPLIGEIEKNSQFKAQFALIDAHIALIRGDLKAAISQVRAVLASNQLSHFYDLYHLCVLLERCSFLSEMKSMLPRARRAIAEAQHPSIFRSQVHMLKSLEMRLQESQTKIEQIRRQITAQKSISTSAITPHFDRYFQLHDLLPHSKKICLAIVRLASLRPFEYRGEYAIYRKLEHCDRVIRNLCDNRELQSIKYNNMYQYAKQNITVSNG”, the protein production result is “failed”.

With “MSFLKPKTHIEKGDVVILYLSVSSMHAIEAVPEIVNKKGETIPHIFQTNYGSLKVENIIGVEYGSKVELSKGWAHVLQPTPELWTQTLPHRTQIIYTPDISMIIHQLEVRPGAVVVESGTGSGSLSHYFLRALKPTGHLHTFDFHEARADQARDEFRRHGIADFVTVYHRDVCNLGFGAELDGKADAVFLDLPAPDLAVPHAFKALKLSGGRFCSFSPCIEQSQRCIQELTKLGFNEIVSLEVLQQENVVKTRTLPVIDLEFLKLPKTDETTAATNALESKAPKEVKKYLTSSNPQTLPGHTGFLTFATLPPNIPKA”, the protein production entry is listed as “failed”.

Consider “MSFRTGERRIWDATATLEALGAADVALWIWEPETDRLRLNGAARALGLGPLAPECSSAAFRALALPQDRAQAEEVLKPREPGSEVVARFRVRGGETCLWRGVWLEEGVRAAGVVAPETKFSASELCDLTGLLDRRSFLARARERLAQEGTHQLVVADLDRLRRLNEALGHERADLVLAALGSRLAAAFPAQSILGRIGEDEFAVLCQPLGYEPSDVLRSALEQPLRVAGFDIHPTLSIGAVSAEGGLDAPDAAELLRRAELAVEAAAAAGRGGAAAYGRAMETDGLSRLALEADLRGAIGRGEITPYFQPIVRLSTGALSGFEALARWIHPRRGMLPPDEFLPLIEEMGLMSELGAHMMHAAAQQLSTWRAAHPAMGNLTVSVNLSTGEIDRPGLVADVAETLRVNRLPRGALKLEVTESDIMRDPERAAVILKTLRDAGAGLALDDFGTGFSSLSYLTRLPFDTLKIDRYFVRTMGNNAGSAKIVRSVVKLGQDLDLEVVAEGVENAEMAHALQSLGCDYGQGFGYAPALSPQEAEVYLNEAYVDGAAPVKARG”, for which the protein production entry is on record as “failed”.

Take “MSFSADALEGGLSSLKLAADKYRSILNDEKTGNIRWRYGGPPIFDTVNKLFEEERTHVQWRYDNPPDFNSVNQLFEEGQTKVWPEGSLEETVQNAIKSWEMEFSHKIRLQDFKTINPEKFKLFVNGREGLSAEETLRLGSYNALLKNSLPEEFQYYKPEEESFESSHDAFRSALPRGFAWEILSVYSGPPVIAFKFRHWGYFEGTFKGHAPTGEMVQFLGLGVLKVDESLRAEEIEIYYDPGELFGGLLKGPPISETKTTDSGDNTAEKQSCPFTH”: the protein production entry is given as “failed”.

Turning to “MSFSDSESSSHGGGGGDYKFFRQISRDRLLHEMLGSTKTGDSKAWKILIMDRVTVKVMSQSCKMADITDQGISLVEELFKRREPMPGMDAIYFIQPSKENIVMFLSDMSGREPLYRKAFIFFSSTIPKELVNHIKSDSSVLPRIGALREMNMEYFPIDNQGFLTDHEQALETLYAEDAENSRHFHICLNIMATRIATVFASLKELPFVRYRAAKSTASRDLVPSKLAAAIWDCISKYKAIPNFPQTETCELLIVDRSVDQVLRLIYYIYSSSPY”, the protein production result is on record as “failed”.
